Laboratory results published in US20160264649A1.

How the values were obtained:
Experiment in all cases: cell-based or functional assay
[1] = molecular target: HIV-1 Env of isolate 92UG001 (subtype D) (HIV-1)
[2] = molecular target: HIV-1 Env of isolate 92UG005 (subtype D) (HIV-1)
[3] = molecular target: HIV-1 Env of isolate 92UG024 (subtype D) (HIV-1)
[4] = molecular target: HIV-1 Env of isolate 92UG046 (subtype D) (HIV-1)
[5] = molecular target: HIV-1 Env of isolate 92UG114 (subtype D) (HIV-1)
[6] = molecular target: HIV-1 Env of isolate 98CN006 (subtype CRF08_BC) (HIV-1)
[7] = molecular target: HIV-1 Env of isolate 98CN009 (subtype CRF07_BC) (HIV-1)
[8] = molecular target: HIV-1 Env of isolate MGRM-D-001 (subtype D) (HIV-1)
[9] = molecular target: HIV-1 Env of isolate MGRM-D-002 (subtype D) (HIV-1)
[10] = molecular target: HIV-1 Env of isolate MGRM-D-003 (subtype D) (HIV-1)
[11] = molecular target: HIV-1 Env of isolate MGRM-D-004 (subtype D) (HIV-1)
[12] = molecular target: HIV-1 Env of isolate MGRM-D-005 (subtype D) (HIV-1)
[13] = molecular target: HIV-1 Env of isolate MGRM-D-008 (subtype D) (HIV-1)
[14] = molecular target: HIV-1 Env of isolate MGRM-D-011 (subtype D) (HIV-1)
[15] = molecular target: HIV-1 Env of isolate MGRM-D-012 (subtype D) (HIV-1)
[16] = molecular target: HIV-1 Env of isolate MGRM-D-013 (subtype D) (HIV-1)
[17] = molecular target: HIV-1 Env of isolate MGRM-D-014 (subtype D) (HIV-1)
[18] = molecular target: HIV-1 Env of isolate MGRM-D-016 (subtype D) (HIV-1)
[19] = molecular target: HIV-1 Env of isolate MGRM-D-018 (subtype D) (HIV-1)
[20] = molecular target: HIV-1 Env of isolate MGRM-D-019 (subtype D) (HIV-1)
[21] = molecular target: HIV-1 Env of isolate MGRM-D-020 (subtype D) (HIV-1)
[22] = molecular target: HIV-1 Env of isolate MGRM-D-021 (subtype D) (HIV-1)
[23] = molecular target: HIV-1 Env of isolate MGRM-D-022 (subtype D) (HIV-1)
[24] = molecular target: HIV-1 Env of isolate MGRM-D-024 (subtype D) (HIV-1)
[25] = molecular target: HIV-1 Env of isolate MGRM-D-026 (subtype D) (HIV-1)
[26] = molecular target: HIV-1 Env of isolate MGRM-D-028 (subtype D) (HIV-1)
[27] = molecular target: HIV-1 Env of isolate MGRM-D-029 (subtype D) (HIV-1)
[28] = molecular target: HIV-1 Env of isolate MGRM-F1-004 (subtype F) (HIV-1)
[29] = molecular target: HIV-1 Env of isolate MGRM-F1-006 (subtype F) (HIV-1)
[30] = molecular target: HIV-1 Env of isolate MGRM-F1-008 (subtype F) (HIV-1)
[31] = molecular target: HIV-1 Env of isolate MGRM-F1-010 (subtype F) (HIV-1)
[32] = molecular target: HIV-1 Env of isolate MGRM-F1-012 (subtype F) (HIV-1)
[33] = molecular target: HIV-1 Env of isolate MGRM-F1-013 (subtype F) (HIV-1)
[34] = molecular target: HIV-1 Env of isolate MGRM-F1-014 (subtype F) (HIV-1)
[35] = molecular target: HIV-1 Env of isolate MGRM-F1-015 (subtype F) (HIV-1)
[36] = molecular target: HIV-1 Env of isolate MGRM-F1-016 (subtype F) (HIV-1)
[37] = molecular target: HIV-1 Env of isolate MGRM-F1-017 (subtype F) (HIV-1)
[38] = molecular target: HIV-1 Env of isolate MGRM-F1-018 (subtype F) (HIV-1)
[39] = molecular target: HIV-1 Env of isolate MGRM-F1-020 (subtype F) (HIV-1)
[40] = molecular target: HIV-1 Env of isolate MGRM-F1-021 (subtype F) (HIV-1)
[41] = molecular target: HIV-1 Env of isolate MGRM-F1-022 (subtype F) (HIV-1)
[42] = molecular target: HIV-1 Env of isolate MGRM-F1-023 (subtype F) (HIV-1)
[43] = molecular target: HIV-1 Env of pseudovirus isolate MGRM-G-001 (subtype G) (HIV-1)
[44] = molecular target: HIV-1 Env of pseudovirus isolate MGRM-G-004 (subtype G) (HIV-1)
[45] = molecular target: HIV-1 Env of pseudovirus isolate MGRM-G-006 (subtype G) (HIV-1)
[46] = molecular target: HIV-1 Env of pseudovirus isolate MGRM-G-009 (subtype G) (HIV-1)
[47] = molecular target: HIV-1 Env of pseudovirus isolate MGRM-G-011 (subtype G) (HIV-1)
[48] = molecular target: HIV-1 Env of pseudovirus isolate MGRM-G-013 (subtype G) (HIV-1)
[49] = molecular target: HIV-1 Env of pseudovirus isolate MGRM-G-014 (subtype G) (HIV-1)
[50] = molecular target: HIV-1 Env of pseudovirus isolate MGRM-G-015 (subtype G) (HIV-1)
[51] = molecular target: HIV-1 Env of pseudovirus isolate MGRM-G-016 (subtype G) (HIV-1)
[52] = molecular target: HIV-1 Env of pseudovirus isolate MGRM-G-017 (subtype G) (HIV-1)
[53] = molecular target: HIV-1 Env of pseudovirus isolate MGRM-G-019 (subtype G) (HIV-1)
[54] = molecular target: HIV-1 Env of pseudovirus isolate MGRM-G-024 (subtype G) (HIV-1)
[55] = molecular target: HIV-1 Env of pseudovirus isolate MGRM-G-025 (subtype G) (HIV-1)
[56] = molecular target: HIV-1 Env of pseudovirus isolate MGRM-G-027 (subtype G) (HIV-1)
[57] = molecular target: HIV-1 Env of pseudovirus isolate MGRM-G-028 (subtype G) (HIV-1)
[58] = molecular target: envelope of aMLV pseudovirus (negative control)

PGT-122 (antibody)
IC50 (neutralization) [1]: > 50 µg/mL | IC50 (neutralization) [2]: > 50 µg/mL | IC50 (neutralization) [3]: > 50 µg/mL | IC50 (neutralization) [4]: > 50 µg/mL | IC50 (neutralization) [5]: 0.011 µg/mL | IC50 (neutralization) [6]: 0.021 µg/mL | IC50 (neutralization) [7]: 0.013 µg/mL | IC50 (neutralization) [8]: 1.13 µg/mL | IC50 (neutralization) [9]: 0.005 µg/mL | IC50 (neutralization) [10]: > 50 µg/mL | IC50 (neutralization) [11]: > 50 µg/mL | IC50 (neutralization) [12]: > 50 µg/mL | IC50 (neutralization) [13]: > 50 µg/mL | IC50 (neutralization) [14]: 0.019 µg/mL | IC50 (neutralization) [15]: > 50 µg/mL | IC50 (neutralization) [16]: > 50 µg/mL | IC50 (neutralization) [17]: 0.012 µg/mL | IC50 (neutralization) [18]: > 50 µg/mL | IC50 (neutralization) [19]: 0.007 µg/mL | IC50 (neutralization) [20]: > 50 µg/mL | IC50 (neutralization) [21]: 0.007 µg/mL | IC50 (neutralization) [22]: 11.7 µg/mL | IC50 (neutralization) [23]: > 50 µg/mL | IC50 (neutralization) [24]: 0.185 µg/mL | IC50 (neutralization) [25]: > 50 µg/mL | IC50 (neutralization) [26]: 3.34 µg/mL | IC50 (neutralization) [27]: > 50 µg/mL | IC50 (neutralization) [28]: 1.29 µg/mL | IC50 (neutralization) [29]: 3.27 µg/mL | IC50 (neutralization) [30]: > 50 µg/mL | IC50 (neutralization) [31]: 0.024 µg/mL | IC50 (neutralization) [32]: > 50 µg/mL | IC50 (neutralization) [33]: 0.152 µg/mL | IC50 (neutralization) [34]: 0.195 µg/mL | IC50 (neutralization) [35]: 31.4 µg/mL | IC50 (neutralization) [36]: 4.81 µg/mL | IC50 (neutralization) [37]: > 50 µg/mL | IC50 (neutralization) [38]: 0.563 µg/mL | IC50 (neutralization) [39]: 0.321 µg/mL | IC50 (neutralization) [40]: 2.3 µg/mL | IC50 (neutralization) [41]: 0.277 µg/mL | IC50 (neutralization) [42]: 0.154 µg/mL | IC50 [43]: 0.005 µg/mL | IC50 [44]: 2.15 µg/mL | IC50 [45]: > 50 µg/mL | IC50 [46]: 0.514 µg/mL | IC50 [47]: 31.3 µg/mL | IC50 [48]: 3.45 µg/mL | IC50 [49]: 0.008 µg/mL | IC50 [50]: > 50 µg/mL | IC50 [51]: > 50 µg/mL | IC50 [52]: 0.032 µg/mL | IC50 [53]: 0.016 µg/mL | IC50 [54]: 0.033 µg/mL | IC50 [55]: 0.079 µg/mL | IC50 [56]: 0.606 µg/mL | IC50 [57]: 0.01 µg/mL | IC50 [58]: > 50 µg/mL
